The source of these data is patent US20240299504A1, “COMPOSITIONS AND METHODS FOR TREATING ALZHEIMERS DISEASE” (priority 2023, published 2024).

The experiment has as its target T1, PTH receptor (PTH1R), parathyroid hormone type 1 receptor, on mouse astrocytes (mouse, UniProt P41593 27-591).
T1 construct: whole, on cells; Endogenous receptor of mouse cells; not isolated or expressed recombinantly
T1 sequence (looked up): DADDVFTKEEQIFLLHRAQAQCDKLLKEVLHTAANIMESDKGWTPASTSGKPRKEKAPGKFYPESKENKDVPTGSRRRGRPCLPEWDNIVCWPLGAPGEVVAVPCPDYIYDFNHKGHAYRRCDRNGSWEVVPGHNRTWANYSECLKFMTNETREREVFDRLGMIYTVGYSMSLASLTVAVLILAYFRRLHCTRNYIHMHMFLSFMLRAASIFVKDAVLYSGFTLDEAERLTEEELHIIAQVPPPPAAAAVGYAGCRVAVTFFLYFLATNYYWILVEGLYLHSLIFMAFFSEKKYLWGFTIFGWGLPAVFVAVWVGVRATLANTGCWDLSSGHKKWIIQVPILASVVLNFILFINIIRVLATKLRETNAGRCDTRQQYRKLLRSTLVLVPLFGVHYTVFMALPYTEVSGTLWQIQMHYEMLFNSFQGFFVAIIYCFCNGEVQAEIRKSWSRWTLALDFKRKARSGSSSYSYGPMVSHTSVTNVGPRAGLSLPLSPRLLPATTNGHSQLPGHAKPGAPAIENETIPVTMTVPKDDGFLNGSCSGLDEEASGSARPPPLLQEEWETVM
The experiment in a line: summary sentence of the example; inferred from Biotin-PTH1-34 co-staining with astrocytes, PTH1R expression and signalling in cultured astrocytes.

B1: Parathyroid hormone (human) PTH1-34 (TOCRIS Bioscience, Cat #3011/1) (peptide, UniProt P01270 32-65, looked up)
peptide: SVSEIQLMHNLGKHLNSMERVEWLRKKLQDVHNF
notes: range 1-34; Residues 1-34 count on mature PTH, not on the precursor; also called hPTH1-34; Teriparatide
On to B1, for which the binding result is “binds”.
